{"source": "paper PMC12475165", "about": "(Nature Communications, 2025)", "binders": {"B1": {"name": "VP35 made by EBOV in infected cells (natural protein)", "chain": "MTTRTKGRGHTAATTQNDRMPGPELSGWISEQLMTGRIPVSDIFCDIENNPGLCYASQMQQTKPNPKTRNSQTQTDPICNHSFEEVVQTLASLATVVQQQTIASESLEQRITSLENGLKPVYDMAKTISSLNRVCAEMVAKYDLLVMTTGRATATAAATEAYWAEHGQPPPGPSLYEESAIRGKIESRDETVPQSVREAFNNLNSTTSLTEENFGKPDISAKDLRNIMYDHLPGFGTAFHQLVQVICKLGKDSNSLDIIHAEFQASLAEGDSPQCALIQITKRVPIFQDAAPPVIHIRSRGDIPRACQKSLRPVPPSPKIDRGWVCVFQLQDGKTLGLKI"}}, "target": "T1, EDC4 (endogenous, EBOV-infected cells) (UniProt Q6P2E9 1-1401)", "T1 sequence": "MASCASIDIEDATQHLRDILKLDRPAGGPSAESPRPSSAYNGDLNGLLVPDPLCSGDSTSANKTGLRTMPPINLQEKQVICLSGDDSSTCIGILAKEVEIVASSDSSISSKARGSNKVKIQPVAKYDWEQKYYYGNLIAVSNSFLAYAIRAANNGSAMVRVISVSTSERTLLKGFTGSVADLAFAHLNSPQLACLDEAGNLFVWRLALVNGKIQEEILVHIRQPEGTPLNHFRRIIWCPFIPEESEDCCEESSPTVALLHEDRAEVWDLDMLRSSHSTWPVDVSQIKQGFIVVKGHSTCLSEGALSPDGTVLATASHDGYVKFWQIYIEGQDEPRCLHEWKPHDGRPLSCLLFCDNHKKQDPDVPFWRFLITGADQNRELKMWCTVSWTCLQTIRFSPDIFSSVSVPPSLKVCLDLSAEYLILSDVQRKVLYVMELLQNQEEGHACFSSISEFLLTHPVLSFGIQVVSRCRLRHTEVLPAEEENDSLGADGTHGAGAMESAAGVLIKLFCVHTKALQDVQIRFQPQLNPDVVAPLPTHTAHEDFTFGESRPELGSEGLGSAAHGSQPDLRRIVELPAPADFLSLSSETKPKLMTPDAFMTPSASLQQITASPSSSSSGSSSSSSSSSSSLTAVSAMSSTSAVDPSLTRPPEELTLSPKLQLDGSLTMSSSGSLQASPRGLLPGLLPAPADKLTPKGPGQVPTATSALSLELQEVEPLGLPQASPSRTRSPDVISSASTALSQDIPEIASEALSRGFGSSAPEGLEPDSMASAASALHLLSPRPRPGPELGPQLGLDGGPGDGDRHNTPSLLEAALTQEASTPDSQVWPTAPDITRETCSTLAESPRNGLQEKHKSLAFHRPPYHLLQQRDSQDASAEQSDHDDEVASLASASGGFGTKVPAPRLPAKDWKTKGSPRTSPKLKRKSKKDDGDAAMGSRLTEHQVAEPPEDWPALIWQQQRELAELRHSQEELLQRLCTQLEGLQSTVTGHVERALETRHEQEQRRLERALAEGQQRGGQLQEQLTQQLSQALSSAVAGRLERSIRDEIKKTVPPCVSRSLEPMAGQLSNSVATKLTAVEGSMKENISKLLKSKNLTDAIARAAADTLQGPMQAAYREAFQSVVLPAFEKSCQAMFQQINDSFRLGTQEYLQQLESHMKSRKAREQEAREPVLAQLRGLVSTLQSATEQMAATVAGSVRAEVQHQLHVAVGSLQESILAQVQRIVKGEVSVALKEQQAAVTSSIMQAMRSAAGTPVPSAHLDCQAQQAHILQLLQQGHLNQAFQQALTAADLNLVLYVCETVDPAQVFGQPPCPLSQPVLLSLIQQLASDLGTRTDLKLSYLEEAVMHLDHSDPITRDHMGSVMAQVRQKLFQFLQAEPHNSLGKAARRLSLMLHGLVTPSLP", "experiment": "proximity ligation", "settings": "partners not purified", "data": [{"binder": "B1", "values": [{"measurement": "PLA puncta per cell, fold over uninfected cells", "result": 6, "unit": "fold"}]}]}
